Measurements: the supplement of paper PMC7125110
± gives the standard error. This sample holds only a part of the variants without activity.

B1: glmS ribozyme (parent)
chain: AUAAAAGCGCCAGAACUACAGAAAUGUAGUUGACGAGGAGGAGGUUUAUCGAAUUUUCGGCGGAUGCCUCCAAA

Variants of: B1
Test: self-cleavage kobs at 10000 uM GlcN6P; higher = faster cleavage; RNA array
Details: with glucosamine-6-phosphate
Procedure, shortened: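 Tiles bearing barcoded ribozyme variants, transcribed in situ by E. coli RNA polymerase on sequenced MiSeq chips, were imaged over ~14 h at 37 °C using a hybridised Cy3 probe. Glucosamine-6-phosphate was supplied at 40 μM to 10 mM in HEPES/KCl/Mg(OAc)2 buffer. kobs came from one- or two-exponential decay fits to normalised per-tile medians, and weighted Michaelis–Menten fits then provided kcat and KM.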

Variant | self-cleavage kobs at 10000 uM GlcN6P
C19A G43C U47G | < 1e-05 s⁻¹
G44A C58A C67U | 0.000308 ± 6.5e-05 s⁻¹
C8A U45A A52G C61G C67U | < 1e-05 s⁻¹
C8G C34A G66C | < 1e-05 s⁻¹
U30A G37C C50U | < 1e-05 s⁻¹
U55G C61A C71G | < 1e-05 s⁻¹
A6U A12U A53G C67G | 8.82e-05 ± 1.8e-05 s⁻¹
G9A C16G G51A G60U | < 1e-05 s⁻¹
C34A G51A C67G C70A | < 1e-05 s⁻¹
A48U G59U C68A | < 1e-05 s⁻¹
G13U A36U G44U | < 1e-05 s⁻¹
G13C U56G A64G C67A | 3.32e-05 ± 1.4e-05 s⁻¹
A14C U65G C68U | 0.000226 ± 4.7e-05 s⁻¹
A39G A53C C71A | 0.00202 ± 0.00063 s⁻¹
G32A G40A C68G | < 1e-05 s⁻¹
A6U G7U C8U G32A G51U | < 1e-05 s⁻¹
C8G C58U C61U | < 1e-05 s⁻¹
G38C G44C A53U G62C | < 1e-05 s⁻¹
U31A G32A G62U | < 1e-05 s⁻¹
C34A G43A U49G C70G | < 1e-05 s⁻¹
G41U C67G C68A | 0.000314 ± 0.00012 s⁻¹
A36C U54A G59A | < 1e-05 s⁻¹

Variant | self-cleavage kobs at 10000 uM GlcN6P
C10U A12G G13U A14C G41A | < 1e-05 s⁻¹
G9U U30C U31C G43A U65A C68U C71A | < 1e-05 s⁻¹
C8U C50A G51U A52U | < 1e-05 s⁻¹
C11A A52G | 3.16e-05 ± 9.6e-06 s⁻¹
A48U A52G U55A A64G | 4.66e-05 ± 1.1e-05 s⁻¹
C8A U65G | < 1e-05 s⁻¹
A14U A53U C68G | 5.14e-05 ± 1.1e-05 s⁻¹
C16A U31G C67U | 6.54e-05 ± 1.4e-05 s⁻¹
A15G G29A G32A A64G | 0.000605 ± 0.00015 s⁻¹
G35C G43C | < 1e-05 s⁻¹
U45A U56A | 0.0179 ± 0.0079 s⁻¹
U30C A36C U49A | < 1e-05 s⁻¹
U31G U54C C70G | 0.000117 ± 2.3e-05 s⁻¹
A6U U45G G66A | 0.000175 ± 4.1e-05 s⁻¹
C8G G43U G51U U54G | < 1e-05 s⁻¹
U47A C67U C71U | 0.000453 ± 0.00017 s⁻¹
G29U U54A C71U | 0.00223 ± 0.00064 s⁻¹
G40C G43U G51U | < 1e-05 s⁻¹
C11U A48G C50U C71U | < 1e-05 s⁻¹
G40A C67A C70A | 0.0001 ± 2.9e-05 s⁻¹
C19U C68U | 0.00423 ± 0.0011 s⁻¹
C16U G32A U57C | 2.6e-05 ± 1.3e-05 s⁻¹

Variant | self-cleavage kobs at 10000 uM GlcN6P
C10G A14G | 3.42e-05 ± 7.2e-06 s⁻¹
A14G G37C U45A U49C G59U | < 1e-05 s⁻¹
G37A U54A G66U | 0.000359 ± 8.7e-05 s⁻¹
A12G U46A C71G | 3.42e-05 ± 1.3e-05 s⁻¹
A6U U45G U46C | 4.58e-05 ± 1.7e-05 s⁻¹
G38U C50G U55G U57G | 7.32e-05 ± 2e-05 s⁻¹
A14C U30A U47G C70U | 8.66e-05 ± 1.4e-05 s⁻¹
A12C U31C G43U G44U | < 1e-05 s⁻¹
G32C A48C U55C G59A G63A | < 1e-05 s⁻¹
G13A G38U | < 1e-05 s⁻¹
A12U A14G U57A | 0.000643 ± 0.00011 s⁻¹
G41U A42U U55C C70G | 0.000238 ± 4.7e-05 s⁻¹
A15U C50U C61G A64G | < 1e-05 s⁻¹
A12U C16A G35A A42C G59U C71U | < 1e-05 s⁻¹
G37U G44U G60U | < 1e-05 s⁻¹
A14U A36U C50U C70A | 7.4e-05 ± 2.1e-05 s⁻¹
G7C G32C G41C | < 1e-05 s⁻¹
U30C G38A G63C U69C | < 1e-05 s⁻¹
U45C U65G C67U | 0.000112 ± 2.2e-05 s⁻¹
C19G G37A | 0.00215 ± 0.00044 s⁻¹
U54G G59U C71U | 4.41e-05 ± 1.6e-05 s⁻¹
U49G G60A C61G G62U | < 1e-05 s⁻¹

Variant | self-cleavage kobs at 10000 uM GlcN6P
C11U G60A C68G | 5.38e-05 ± 1.9e-05 s⁻¹
A28C C68U | 0.00228 ± 0.00063 s⁻¹
C34A A42C U65A | < 1e-05 s⁻¹
A12G U30G C58A | 0.000483 ± 9.8e-05 s⁻¹
G7A C16G A52U C61A | < 1e-05 s⁻¹
A12C U49A G66C C71U | < 1e-05 s⁻¹
A12C A52U C67G | 0.000146 ± 3.5e-05 s⁻¹
C16G A36C C58U C70G | 4.92e-05 ± 2.2e-05 s⁻¹
A48G C58U A64U | < 1e-05 s⁻¹
U31A A33G C67A | < 1e-05 s⁻¹
A39C G40A C58G | < 1e-05 s⁻¹
A39G G43U G44U C67G | 5.34e-05 ± 1.9e-05 s⁻¹
C11U A15G U31C C67G | 6.25e-05 ± 1.8e-05 s⁻¹
U54A U57G | 5.94e-05 ± 1.1e-05 s⁻¹
U31A U46G | 0.00387 ± 0.0007 s⁻¹
C10A A14G G32U A48C G59A | < 1e-05 s⁻¹
U45A U54A C70A | 8.25e-05 ± 1.9e-05 s⁻¹
G35U U47C G51U | < 1e-05 s⁻¹
A12C A14G U54A | 0.0236 ± 0.0056 s⁻¹
